For one molecule, fold increase of phage binding compared to the original library results are on record in patent US20150212086A1.

Where no end group is shown, it is not given here.

The target of this assay is full-length MDGI (mammary-derived growth inhibitor) expressed from the pcDNA3-9E10 plasmid as a c-Myc fusion protein (mouse) (UniProt P11404). Briefly: phage binding to U2OS cells transiently transfected with MDGI, 2 h at 4 C, bound phage titrated.

Turning to CGLSGLGVA (peptide, not shown: large carriers, also: displayed on T7 phage capsid protein) [CooP displaying phage (phage 36), peptide sequence …], the fold increase of phage binding compared to the original library stood at 10 fold.
